B1: OR4K15 (parent)
chain: GUUAACGGUCAUAGGCCAUGGAAACUAGGAGCACCAUUUCGCUGCCAGUGAAGAAAUGAACAAAGAAAAUCUGGGCCAGGCAGGCAUCAAAAGAAAUAGUCUUGCGCUCAACCAGAAAGUCUGUAAUCAUUUUAAGGGUA

Variants of: B1
Test: self-cleavage, relative activity (ratio to wild type); higher = more cleavage; in vitro, sequencing; the parent is a self-cleaving ribozyme

Variant	self-cleavage
GUUAACGGUCAUAGGCCAUGGAAACUAGGAGCACCAUUUCGCUGCCAGUGAAGAAAUGAACAAAGAAAAUCUGGGCCAGGCAGGCAGCAAAAGAAAUAGUCUUGCGCUCAACCAGAAAGUCCGUAAUCAUUUUAAGGGUA [U87G U122C]	0.68
GUUAACGGUCAUAGGCCAUGGAAACUAGGAGCACCAUUUCGCUGCCAGUGAAGAAAUGAACAAAGAAAAUCUGGGCCAGGCAGGCAUCCAAAGAAAUAGUCUUGCGCUCAACCAGAAAGUCUGUAAUCAUUUUAAAGGUA [A89C G136A]	1.27
GUUAACGGUCAUAGGCCAUGGAAACUAGGAGCACCAUUUCGCUGCCAGUGAAGAAAUGAACAAAGAAAAUCUGGGCCAGGCAGGCAGCAAAAGAAAUAGUCUUGCGCUCAACCAGAAAGUCUGUAAUCAUUUUGAGGGUA [U87G A134G]	0.44
GUUAACGGUCAUAGGCCAUGGAAACUAGGAGCACCAUUUCGCUGCCAGUGAAGAAAUGAACAAAGAAAAUCUGGGCCAGGCAGGCAUCCAAAGAAAUAGUCUUGCGCUCAACCAGAAAGUCUGUAAUCAUUUUAAGGGCA [A89C U139C]	1.52
GUUAACGGUCAUAGGCCAUGGAAACUAGGAGCACCAUUUCGCUGCCAGUGAAGAAAUGAACAAAGAAAAUCUGGGCCAGGCAGGCAGCAAAAGAAAUAGUCUUGCGCUCAACCAGAAAGUCUGUGAUCAUUUUAAGGGUA [U87G A125G]	0.07
GUUAACGGUCAUAGGCCAUGGAAACUAGGAGCACCAUUUCGCUGCCAGUGAAGAAAUGAACAAAGAAAAUCUGGGCCAGGCAGGCAGCAAAAGAAAUAGUCUUGCGCUCAACCAGAAAGUCUGUACUCAUUUUAAGGGUA [U87G A126C]	0.12
GUUAACGGUCAUAGGCCAUGGAAACUAGGAGCACCAUUUCGCUGCCAGUGAAGAAAUGAACAAAGAAAAUCUGGGCCAGGCAGGCACCAAAAGAAAUAGUCUUGCGCUCAACCAGAAAGUCUGUAAUCAGUUUAAGGGUA [U87C U130G]	0.15
GUUAACGGUCAUAGGCCAUGGAAACUAGGAGCACCAUUUCGCUGCCAGUGAAGAAAUGAACAAAGAAAAUCUGGGCCAGGCAGGCAUUAAAAGAAAUAGUCUUGCGCUCAACCAGAAAGUCUGUAAUCGUUUUAAGGGUA [C88U A129G]	1.65
GUUAACGGUCAUAGGCCAUGGAAACUAGGAGCACCAUUUCGCUGCCAGUGAAGAAAUGAACAAAGAAAAUCUGGGCCAGGCAGGCAUUAAAAGAGAUAGUCUUGCGCUCAACCAGAAAGUCUGUAAUCAUUUUAAGGGUA [C88U A95G]	2.12
GUUAACGGUCAUAGGCCAUGGAAACUAGGAGCACCAUUUCGCUGCCAGUGAAGAAAUGAACAAAGAAAAUCUGGGCCAGGCAGGCAUCGAUAGAAAUAGUCUUGCGCUCAACCAGAAAGUCUGUAAUCAUUUUAAGGGUA [A89G A91U]	2.19
GUUAACGGUCAUAGGCCAUGGAAACUAGGAGCACCAUUUCGCUGCCAGUGAAGAAAUGAACAAAGAAAAUCUGGGCCAGGCAGGCAGCAAAAGAAAUAGUCUUGCGCUCAACCAGAGAGUCUGUAAUCAUUUUAAGGGUA [U87G A117G]	0.46
GUUAACGGUCAUAGGCCAUGGAAACUAGGAGCACCAUUUCGCUGCCAGUGAAGAAAUGAACAAAGAAAAUCUGGGCCAGGCAGGCACCAAAAGAAAUAGUCUUGCGCUCAACCAGAAAGCCUGUAAUCAUUUUAAGGGUA [U87C U120C]	0.21
GUUAACGGUCAUAGGCCAUGGAAACUAGGAGCACCAUUUCGCUGCCAGUGAAGAAAUGAACAAAGAAAAUCUGGGCCAGGCAGGCAUCGGAAGAAAUAGUCUUGCGCUCAACCAGAAAGUCUGUAAUCAUUUUAAGGGUA [A89G A90G]	0.71
GUUAACGGUCAUAGGCCAUGGAAACUAGGAGCACCAUUUCGCUGCCAGUGAAGAAAUGAACAAAGAAAAUCUGGGCCAGGCAGGCACCAAAAGAAAUAGUCUUGCGCUCAACCAGAAAGUCCGUAAUCAUUUUAAGGGUA [U87C U122C]	1.07
GUUAACGGUCAUAGGCCAUGGAAACUAGGAGCACCAUUUCGCUGCCAGUGAAGAAAUGAACAAAGAAAAUCUGGGCCAGGCAGGCAUCGAAAGAGAUAGUCUUGCGCUCAACCAGAAAGUCUGUAAUCAUUUUAAGGGUA [A89G A95G]	1.87
GUUAACGGUCAUAGGCCAUGGAAACUAGGAGCACCAUUUCGCUGCCAGUGAAGAAAUGAACAAAGAAAAUCUGGGCCAGGCAGGCAGCAAAAGAAAUAGUCUUGCGCCCAACCAGAAAGUCUGUAAUCAUUUUAAGGGUA [U87G U108C]	0.02
GUUAACGGUCAUAGGCCAUGGAAACUAGGAGCACCAUUUCGCUGCCAGUGAAGAAAUGAACAAAGAAAAUCUGGGCCAGGCAGGCAUCCAAAGAAAUAGUCUUGCGCUCGACCAGAAAGUCUGUAAUCAUUUUAAGGGUA [A89C A110G]	0.18
GUUAACGGUCAUAGGCCAUGGAAACUAGGAGCACCAUUUCGCUGCCAGUGAAGAAAUGAACAAAGAAAAUCUGGGCCAGGCAGGCAGCAAAAGAAAUAGUCUCGCGCUCAACCAGAAAGUCUGUAAUCAUUUUAAGGGUA [U87G U103C]	0.22
GUUAACGGUCAUAGGCCAUGGAAACUAGGAGCACCAUUUCGCUGCCAGUGAAGAAAUGAACAAAGAAAAUCUGGGCCAGGCAGGCAGCAGAAGAAAUAGUCUUGCGCUCAACCAGAAAGUCUGUAAUCAUUUUAAGGGUA [U87G A90G]	0.82
GUUAACGGUCAUAGGCCAUGGAAACUAGGAGCACCAUUUCGCUGCCAGUGAAGAAAUGAACAAAGAAAAUCUGGGCCAGGCAGGCAUUAAAAGGAAUAGUCUUGCGCUCAACCAGAAAGUCUGUAAUCAUUUUAAGGGUA [C88U A94G]	1.27
GUUAACGGUCAUAGGCCAUGGAAACUAGGAGCACCAUUUCGCUGCCAGUGAAGAAAUGAACAAAGAAAAUCUGGGCCAGGCAGGCAUCCAAAGAAAUAGUCUUGCGCUCAACCAGAAAGUCUGUAUUCAUUUUAAGGGUA [A89C A126U]	0.86

Variant	self-cleavage
GUUAACGGUCAUAGGCCAUGGAAACUAGGAGCACCAUUUCGCUGCCAGUGAAGAAAUGAACAAAGAAAAUCUGGGCCAGGCAGGCAUCGAAAGUAAUAGUCUUGCGCUCAACCAGAAAGUCUGUAAUCAUUUUAAGGGUA [A89G A94U]	0.86
GUUAACGGUCAUAGGCCAUGGAAACUAGGAGCACCAUUUCGCUGCCAGUGAAGAAAUGAACAAAGAAAAUCUGGGCCAGGCAGGCAUCGAAAGGAAUAGUCUUGCGCUCAACCAGAAAGUCUGUAAUCAUUUUAAGGGUA [A89G A94G]	1.39
GUUAACGGUCAUAGGCCAUGGAAACUAGGAGCACCAUUUCGCUGCCAGUGAAGAAAUGAACAAAGAAAAUCUGGGCCAGGCAGGCAUCCAAAGAAAUAGUCUUGCGCUCAACCAGAAAGUCUGUAAUCAUUUUGAGGGUA [A89C A134G]	1.16
GUUAACGGUCAUAGGCCAUGGAAACUAGGAGCACCAUUUCGCUGCCAGUGAAGAAAUGAACAAAGAAAAUCUGGGCCAGGCAGGCAUCCAAAGAAAUAGUCUUGCGCUCAACCAGAAAGUCUGUAAUCACUUUAAGGGUA [A89C U130C]	1.12
GUUAACGGUCAUAGGCCAUGGAAACUAGGAGCACCAUUUCGCUGCCAGUGAAGAAAUGAACAAAGAAAAUCUGGGCCAGGCAGGCACCAAAAGAAAUAGUCUUGCGCUCAACCAGAAAGUCUGUAAUCAUUCUAAGGGUA [U87C U132C]	0.92
GUUAACGGUCAUAGGCCAUGGAAACUAGGAGCACCAUUUCGCUGCCAGUGAAGAAAUGAACAAAGAAAAUCUGGGCCAGGCAGGCAUAAAAAGAAAUAGUCUUGCGCUCAGCCAGAAAGUCUGUAAUCAUUUUAAGGGUA [C88A A111G]	0
GUUAACGGUCAUAGGCCAUGGAAACUAGGAGCACCAUUUCGCUGCCAGUGAAGAAAUGAACAAAGAAAAUCUGGGCCAGGCAGGCACCAAAAGAAAUAGUCUUGCGCUCAACCAGAAAGUCUGCAAUCAUUUUAAGGGUA [U87C U124C]	0.83
GUUAACGGUCAUAGGCCAUGGAAACUAGGAGCACCAUUUCGCUGCCAGUGAAGAAAUGAACAAAGAAAAUCUGGGCCAGGCAGGCAUAAAAAGAAAUAGUCCUGCGCUCAACCAGAAAGUCUGUAAUCAUUUUAAGGGUA [C88A U102C]	2.23
GUUAACGGUCAUAGGCCAUGGAAACUAGGAGCACCAUUUCGCUGCCAGUGAAGAAAUGAACAAAGAAAAUCUGGGCCAGGCAGGCAUAAAAAGAAAUAGUCAUGCGCUCAACCAGAAAGUCUGUAAUCAUUUUAAGGGUA [C88A U102A]	0.58
GUUAACGGUCAUAGGCCAUGGAAACUAGGAGCACCAUUUCGCUGCCAGUGAAGAAAUGAACAAAGAAAAUCUGGGCCAGGCAGGCAUCCAAAGAAAUAGUCUCGCGCUCAACCAGAAAGUCUGUAAUCAUUUUAAGGGUA [A89C U103C]	0.8
GUUAACGGUCAUAGGCCAUGGAAACUAGGAGCACCAUUUCGCUGCCAGUGAAGAAAUGAACAAAGAAAAUCUGGGCCAGGCAGGCAGCAAAAGAAAUAGUCUUGCGCUCAACCAGAAAGUCUGUAAUCAUUUUAAGGGUA [U87G]	0.74
GUUAACGGUCAUAGGCCAUGGAAACUAGGAGCACCAUUUCGCUGCCAGUGAAGAAAUGAACAAAGAAAAUCUGGGCCAGGCAGGCAUAAAAAGGAAUAGUCUUGCGCUCAACCAGAAAGUCUGUAAUCAUUUUAAGGGUA [C88A A94G]	1.5
GUUAACGGUCAUAGGCCAUGGAAACUAGGAGCACCAUUUCGCUGCCAGUGAAGAAAUGAACAAAGAAAAUCUGGGCCAGGCAGGCAGCAAAAGAAAUAGUCUUGCGCUCAACCAGAAAGUCUGUAAUCAUUUUAAGGGUG [U87G A140G]	0.8
GUUAACGGUCAUAGGCCAUGGAAACUAGGAGCACCAUUUCGCUGCCAGUGAAGAAAUGAACAAAGAAAAUCUGGGCCAGGCAGGCACCAAAAGAAAUAGUCUUGCGCUCAACCAGAAAGUCUGUAAUCAUCUUAAGGGUA [U87C U131C]	1.07
GUUAACGGUCAUAGGCCAUGGAAACUAGGAGCACCAUUUCGCUGCCAGUGAAGAAAUGAACAAAGAAAAUCUGGGCCAGGCAGGCACCAAAAGAAAUAGUCUUGCGCUCAACCAGAAAGUCUGUAAUCAUAUUAAGGGUA [U87C U131A]	0.39
GUUAACGGUCAUAGGCCAUGGAAACUAGGAGCACCAUUUCGCUGCCAGUGAAGAAAUGAACAAAGAAAAUCUGGGCCAGGCAGGCAUCCAAAGAAGUAGUCUUGCGCUCAACCAGAAAGUCUGUAAUCAUUUUAAGGGUA [A89C A96G]	2.38
GUUAACGGUCAUAGGCCAUGGAAACUAGGAGCACCAUUUCGCUGCCAGUGAAGAAAUGAACAAAGAAAAUCUGGGCCAGGCAGGCAUAAAAAGAAAUAGUCUUGCGCUCAACCAGAAAGUCUGUAAUCACUUUAAGGGUA [C88A U130C]	1.42
GUUAACGGUCAUAGGCCAUGGAAACUAGGAGCACCAUUUCGCUGCCAGUGAAGAAAUGAACAAAGAAAAUCUGGGCCAGGCAGGCAUCGAAAGAAAUAGUCUUGCGCUCAACCAGAAAGUCUGUAAUCAUUUUAAGGGUA [A89G]	1.11
GUUAACGGUCAUAGGCCAUGGAAACUAGGAGCACCAUUUCGCUGCCAGUGAAGAAAUGAACAAAGAAAAUCUGGGCCAGGCAGGCAUCCAAAGAAAUAGUCUUGCGCUCAACCAGAAAGUCUGUAAUCAUUUUAAGGGUA [A89C]	1.54
GUUAACGGUCAUAGGCCAUGGAAACUAGGAGCACCAUUUCGCUGCCAGUGAAGAAAUGAACAAAGAAAAUCUGGGCCAGGCAGGCACCAAAAGAAAUAGUCUUGCGCUCAACCAGAAAGUCUGUAAUCAUUUGAAGGGUA [U87C U133G]	1.67

Reference: the RNAGym collection of RNA variant scans (doi:10.7554/elife.90254)
